Measured values reported in PMC3554717.

Target: endogenous CSK (Jurkat) (UniProt P41240)
Assay: GST pull-down, CSK immunoblot densitometry
Conditions: Jurkat cell lysates (3×10^8 cells divided into five tubes); GST alone lane 0.00; parent: 84.98

Sequence of endogenous CSK (Jurkat) (P41240 whole entry): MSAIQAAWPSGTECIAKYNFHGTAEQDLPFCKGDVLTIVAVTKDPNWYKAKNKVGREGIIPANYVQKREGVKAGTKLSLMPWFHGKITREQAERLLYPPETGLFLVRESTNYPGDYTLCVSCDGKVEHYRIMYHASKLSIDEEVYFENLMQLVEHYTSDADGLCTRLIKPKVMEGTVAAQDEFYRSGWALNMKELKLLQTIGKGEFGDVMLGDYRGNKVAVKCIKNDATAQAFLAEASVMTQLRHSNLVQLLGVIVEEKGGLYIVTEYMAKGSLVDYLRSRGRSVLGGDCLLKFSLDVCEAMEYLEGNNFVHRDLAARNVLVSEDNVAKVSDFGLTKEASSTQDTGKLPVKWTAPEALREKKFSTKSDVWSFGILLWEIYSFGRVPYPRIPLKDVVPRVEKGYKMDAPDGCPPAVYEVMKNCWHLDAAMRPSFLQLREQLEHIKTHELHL

LYP P1 motif (Arg620) fused to GST R620W
response (arbitrary units): -0
